Values quoted from earlier work, collected in patent CN114306299A, “贝利司他在制备缓解和/或治疗缺血性脑卒中药物中的应用” (Institute of Materia Medica of CAMS and PUMC, priority 2020, dated 2022).

Tested on: stroke (脑卒中)
Conditions: clinical studies, fraction of patients

B1: t-PA: 美国FDA唯一批准用于治疗脑卒中的药物 (protein, UniProt P00750 36-562, looked up)
Tissue-type plasminogen …: SYQVICRDEKTQMIYQQHQSWLRPVLRSNRVEYCWCNSGRAQCHSVPVKSCSEPRCFNGGTCQQALYFSDFVCQCPEGFAGKCCEIDTRATCYEDQGISYRGTWSTAESGAECTNWNSSALAQKPYSGRRPDAIRLGLGNHNYCRNPDRDSKPWCYVFKAGKYSSEFCSTPACSEGNSDCYFGNGSAYRGTHSLTESGASCLPWNSMILIGKVYTAQNPSAQALGLGKHNYCRNPDGDAKPWCHVLKNRRLTWEYCDVPSCSTCGLRQYSQPQFRIKGGLFADIASHPWQAAIFAKHRRSPGERFLCGGILISSCWILSAAHCFQERFPPHHLTVILGRTYRVVPGEEEQKFEVEKYIVHKEFDDDTYDNDIALLQLKSDSSRCAQESSVVRTVCLPPADLQLPDWTECELSGYGKHEALSPFYSERLKEAHVRLYPSSRCTSQHLLNRTVTDNMLCAGDTRSGGPQANLHDACQGDSGGPLVCLNDGRMTLVGIISWGLGCGQKDVPGVYTKVTNYLDWIRDNMRP
In the case of B1, the “patients in whom treatment is ineffective or condition worsens” value (after t-PA treatment) is given as “三分之二” and the “patients in whom t-PA is effective” value is given as “三分之一”.
